Experimental data as given in article PMC5669812 (Protein expression and purification, 2017).
Read-outs that look alike come from different tables or passages of the source.

B1: MTS-labeled GroEL^R268C (natural protein, E. coli)
chain: AAKDVKFGNDARVKMLRGVNVLADAVKVTLGPKGRNVVLDKSFGAPTITKDGVSVAREIELEDKFENMGAQMVKEVASKANDAAGDGTTTATVLAQAIITEGLKAVAAGMNPMDLKRGIDKAVTAAVEELKALSVPASDSKAIAQVGTISANSDETVGKLIAEAMDKVGKEGVITVEDGTGLQDELDVVEGMQFDRGYLSPYFINKPETGAVELESPFILLADKKISNIREMLPVLEAVAKAGKPLLIIAEDVEGEALATLVVNTMCGIVKVAAVKAPGFGDRRKAMLQDIATLTGGTVISEEIGMELEKATLEDLGQAKRVVINKDTTTIIDGVGEEAAIQGRVAQIRQQIEEATSDYDREKLQERVAKLAGGVAVIKVGAATEVEMKEKKARVEDALHATRAAVEEGVVAGGGVALIRVASKLADLRGQNEDQNVGIKVALRAMEAPLRQIVLNAGEEPSVVANTVKGGDGNYGYNAATEEYGNMIDMGILDPTKVTRSALQYAASVAGLMITTEAMVTDLPKNDAADLGAAGGMGGMGGMGGMM
modifications: diamagnetic MTS label on cysteine 268
B2: GroES (natural protein)
chain: MNIRPLHDRVIVKRKEVETKSAGGIVLTGSAAAKSTRGEVLAVGNGRILENGEVKPLDVKVGDIVIFNDGYGVKSEKIDNEEVLIMSESDILAIVEA

Experiments:
native gel or EMSA = biological target: the molecule itself; experiment: native gel or EMSA
MTSL-labeled GroEL^A138C [1] = biological target: T1, MTSL-labeled GroEL^A138C (E. coli, UniProt P0A6F5 2-548, C458A | C519A, MTSL nitroxide spin label on cysteine 138); experiment: negative-stain electron microscopy
MTSL-labeled GroEL^A138C [2] = biological target: T1, MTSL-labeled GroEL^A138C; experiment: negative-stain electron microscopy; remark: listed apart in the source

| Binder | binding result (native gel or EMSA) | stoichiometry N (MTSL-labeled GroEL^A138C [1]) | stoichiometry N (MTSL-labeled GroEL^A138C [2]) |
| --- | --- | --- | --- |
| B1 | binds |  |  |
| B2 |  | 1 GroES molecules per GroEL-14mer | 2 GroES molecules per GroEL-14mer |
